Test results: patent US20250163162A1
Blank lines part the entries; values can stand above or below the binder they belong to.

Columns and labels:
[1] = target: T1, IL10Rα and IL2Rγ on human primary cells (CD8 T cells, CD4 T cells, monocytes) (human) (UniProt Q13651); test: cell-based or functional assay
T1 sequence (looked up) 1: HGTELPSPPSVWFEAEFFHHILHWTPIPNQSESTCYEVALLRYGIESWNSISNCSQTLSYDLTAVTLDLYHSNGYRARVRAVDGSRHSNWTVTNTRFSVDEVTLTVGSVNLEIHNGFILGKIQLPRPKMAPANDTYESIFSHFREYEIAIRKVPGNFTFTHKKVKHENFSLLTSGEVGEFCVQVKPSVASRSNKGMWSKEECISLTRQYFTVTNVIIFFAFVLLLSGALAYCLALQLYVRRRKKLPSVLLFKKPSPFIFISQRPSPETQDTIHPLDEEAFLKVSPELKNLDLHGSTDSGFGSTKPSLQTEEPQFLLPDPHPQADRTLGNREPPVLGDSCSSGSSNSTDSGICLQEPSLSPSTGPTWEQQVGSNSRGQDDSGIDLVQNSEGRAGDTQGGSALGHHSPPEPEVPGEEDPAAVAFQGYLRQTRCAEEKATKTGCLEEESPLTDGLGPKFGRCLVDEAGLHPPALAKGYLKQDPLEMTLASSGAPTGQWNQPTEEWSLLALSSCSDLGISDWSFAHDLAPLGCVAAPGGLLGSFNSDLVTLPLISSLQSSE
T1 sequence (looked up) 2: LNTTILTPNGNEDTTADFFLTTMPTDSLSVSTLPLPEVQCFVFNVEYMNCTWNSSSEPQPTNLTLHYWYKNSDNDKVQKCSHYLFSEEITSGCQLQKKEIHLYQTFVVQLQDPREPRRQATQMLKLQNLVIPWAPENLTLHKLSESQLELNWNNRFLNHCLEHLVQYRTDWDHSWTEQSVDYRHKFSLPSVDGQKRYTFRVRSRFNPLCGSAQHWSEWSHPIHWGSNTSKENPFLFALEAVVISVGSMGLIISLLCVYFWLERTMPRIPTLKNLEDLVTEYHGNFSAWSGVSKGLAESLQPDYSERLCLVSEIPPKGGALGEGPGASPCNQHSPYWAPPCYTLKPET

[2] = target: T2, IL10Rα/IL2Rγ receptor (human) (UniProt Q13651); test: cell-based or functional assay
T2 sequence (looked up) 1: T1 sequence (looked up) 1
T2 sequence (looked up) 2: T1 sequence (looked up) 2

pSTAT3 (MFI) in CD4 T cells at 0.0001 µM [1]: 12600 MFI | pSTAT3 (MFI) in CD4 T cells at 0.001 µM [1]: 12600 MFI | pSTAT3 (MFI) in CD4 T cells at 0.01 µM [1]: 12500 MFI | pSTAT3 (MFI) in CD4 T cells at 0.1 µM [1]: 11300 MFI | pSTAT3 (MFI) in CD4 T cells at 1 µM [1]: 13600 MFI | pSTAT3 (MFI) in CD4 T cells at 10 µM [1]: 14800 MFI | pSTAT3 (MFI) in CD4 T cells at 100 µM [1]: 16000 MFI | pSTAT3 (MFI) in CD8 T cells at 0.0001 µM [1]: 7540 MFI | pSTAT3 (MFI) in CD8 T cells at 0.001 µM [1]: 7890 MFI | pSTAT3 (MFI) in CD8 T cells at 0.01 µM [1]: 7800 MFI | pSTAT3 (MFI) in CD8 T cells at 0.1 µM [1]: 7330 MFI | pSTAT3 (MFI) in CD8 T cells at 1 µM [1]: 9320 MFI | pSTAT3 (MFI) in CD8 T cells at 10 µM [1]: 12300 MFI | pSTAT3 (MFI) in CD8 T cells at 100 µM [1]: 13200 MFI | pSTAT3 (MFI) in monocytes at 0.0001 µM [1]: 4370 MFI | pSTAT3 (MFI) in monocytes at 0.001 µM [1]: 4740 MFI | pSTAT3 (MFI) in monocytes at 0.01 µM [1]: 4420 MFI | pSTAT3 (MFI) in monocytes at 0.1 µM [1]: 4810 MFI | pSTAT3 (MFI) in monocytes at 1 µM [1]: 5690 MFI | pSTAT3 (MFI) in monocytes at 10 µM [1]: 6690 MFI | pSTAT3 (MFI) in monocytes at 100 µM [1]: 6030 MFI
B1: hIL10Ra_VHH14-hIL2Rg_VHH19, linker GGGS, tag Fc (Fc fusion, not shown: a dimerising Fc or GST)
chain: QVQLQESGGGSVQAGGSLRLSCGASGYTYSSYCMGWFRQVPGKEREGVAVIDSDGSTSYADSVKGRFTISKDNGKNTLYLQMNSLKPEDTAMYYCAADLGHYRPPCGVLYLGMDYWGKGTQVTVSSGGGSQVQLQESGGGSVQAGGSLRLSCTASGFTFDDREMNWYRQAPGNECELVSTISSDGSTYYADSVKGRFTISQDNAKNTVYLQMDSVKPEDTAVYYCAADFMIAIQAPGAGCWGQGTQVTVSS

pSTAT3 (MFI) in CD4 T cells at 0.0001 µM [1]: 11900 MFI | pSTAT3 (MFI) in CD4 T cells at 0.001 µM [1]: 12100 MFI | pSTAT3 (MFI) in CD4 T cells at 0.01 µM [1]: 11700 MFI | pSTAT3 (MFI) in CD4 T cells at 0.1 µM [1]: 9670 MFI | pSTAT3 (MFI) in CD4 T cells at 1 µM [1]: 9590 MFI | pSTAT3 (MFI) in CD4 T cells at 10 µM [1]: 11400 MFI | pSTAT3 (MFI) in CD4 T cells at 100 µM [1]: 14700 MFI | pSTAT3 (MFI) in CD8 T cells at 0.0001 µM [1]: 7210 MFI | pSTAT3 (MFI) in CD8 T cells at 0.001 µM [1]: 7460 MFI | pSTAT3 (MFI) in CD8 T cells at 0.01 µM [1]: 7200 MFI | pSTAT3 (MFI) in CD8 T cells at 0.1 µM [1]: 6580 MFI | pSTAT3 (MFI) in CD8 T cells at 1 µM [1]: 6500 MFI | pSTAT3 (MFI) in CD8 T cells at 10 µM [1]: 7930 MFI | pSTAT3 (MFI) in CD8 T cells at 100 µM [1]: 9970 MFI | pSTAT3 (MFI) in monocytes at 0.0001 µM [1]: 4150 MFI | pSTAT3 (MFI) in monocytes at 0.001 µM [1]: 4510 MFI | pSTAT3 (MFI) in monocytes at 0.01 µM [1]: 4360 MFI | pSTAT3 (MFI) in monocytes at 0.1 µM [1]: 4280 MFI | pSTAT3 (MFI) in monocytes at 1 µM [1]: 4640 MFI | pSTAT3 (MFI) in monocytes at 10 µM [1]: 4840 MFI | pSTAT3 (MFI) in monocytes at 100 µM [1]: 4880 MFI
B2: hIL10Ra_VHH14-hIL2Rg_VHH19, linker GGGS, tag his (bispecific antibody, not shown: small tags and cut ends)
chain: B1 chain

Granzyme A secretion, CD8 T cells, at 0 µM [2]: 25200 pg/mL | Granzyme A secretion, CD8 T cells, at 0.0001 µM [2]: 19700 pg/mL | Granzyme A secretion, CD8 T cells, at 0.001 µM [2]: 22300 pg/mL | Granzyme A secretion, CD8 T cells, at 0.01 µM [2]: 22700 pg/mL | Granzyme A secretion, CD8 T cells, at 0.1 µM [2]: 26000 pg/mL | Granzyme A secretion, CD8 T cells, at 1 µM [2]: 30100 pg/mL | Granzyme A secretion, CD8 T cells, at 10 µM [2]: 29300 pg/mL | Granzyme A secretion, CD8 T cells, at 100 µM [2]: 24800 pg/mL | Granzyme B secretion, CD8 T cells, at 0 µM [2]: 77700 pg/mL | Granzyme B secretion, CD8 T cells, at 0.0001 µM [2]: 52600 pg/mL | Granzyme B secretion, CD8 T cells, at 0.001 µM [2]: 45500 pg/mL | Granzyme B secretion, CD8 T cells, at 0.01 µM [2]: 47300 pg/mL | Granzyme B secretion, CD8 T cells, at 0.1 µM [2]: 62200 pg/mL | Granzyme B secretion, CD8 T cells, at 1 µM [2]: 80500 pg/mL | Granzyme B secretion, CD8 T cells, at 10 µM [2]: 83500 pg/mL | Granzyme B secretion, CD8 T cells, at 100 µM [2]: 78100 pg/mL | IFNγ secretion, CD8 T cells, at 0 µM [2]: 122000 pg/mL | IFNγ secretion, CD8 T cells, at 0.0001 µM [2]: 95500 pg/mL | IFNγ secretion, CD8 T cells, at 0.001 µM [2]: 108000 pg/mL | IFNγ secretion, CD8 T cells, at 0.01 µM [2]: 102000 pg/mL | IFNγ secretion, CD8 T cells, at 0.1 µM [2]: 122000 pg/mL | IFNγ secretion, CD8 T cells, at 1 µM [2]: 142000 pg/mL | IFNγ secretion, CD8 T cells, at 10 µM [2]: 143000 pg/mL | IFNγ secretion, CD8 T cells, at 100 µM [2]: 120000 pg/mL | IL-1β secretion, LPS treated monocytes, at 0 µM [2]: 6240 pg/mL | IL-1β secretion, LPS treated monocytes, at 0 µM (LPS only) [2]: 6880 pg/mL | IL-1β secretion, LPS treated monocytes, at 0.0001 µM [2]: 5950 pg/mL | IL-1β secretion, LPS treated monocytes, at 0.001 µM [2]: 6200 pg/mL | IL-1β secretion, LPS treated monocytes, at 0.01 µM [2]: 4960 pg/mL | IL-1β secretion, LPS treated monocytes, at 0.1 µM [2]: 5590 pg/mL | IL-1β secretion, LPS treated monocytes, at 1 µM [2]: 5670 pg/mL | IL-1β secretion, LPS treated monocytes, at 10 µM [2]: 6020 pg/mL | IL-1β secretion, LPS treated monocytes, at 100 µM [2]: 6840 pg/mL | IL-9 secretion, CD8 T cells, at 0 µM [2]: 1350 pg/mL | IL-9 secretion, CD8 T cells, at 0.0001 µM [2]: 988 pg/mL | IL-9 secretion, CD8 T cells, at 0.001 µM [2]: 1050 pg/mL | IL-9 secretion, CD8 T cells, at 0.01 µM [2]: 1010 pg/mL | IL-9 secretion, CD8 T cells, at 0.1 µM [2]: 1300 pg/mL | IL-9 secretion, CD8 T cells, at 1 µM [2]: 1380 pg/mL | IL-9 secretion, CD8 T cells, at 10 µM [2]: 1880 pg/mL | IL-9 secretion, CD8 T cells, at 100 µM [2]: 1700 pg/mL
B3: hIL10Ra_VHH14 - hIL2Rg_VHH19, linker GGGSGGGS, tag his (bispecific antibody, not shown: small tags and cut ends)
chain: QVQLQESGGGSVQAGGSLRLSCGASGYTYSSYCMGWFRQVPGKEREGVAVIDSDGSTSYADSVKGRFTISKDNGKNTLYLQMNSLKPEDTAMYYCAADLGHYRPPCGVLYLGMDYWGKGTQVTVSSGGGSGGGSQVQLQESGGGSVQAGGSLRLSCTASGFTFDDREMNWYRQAPGNECELVSTISSDGSTYYADSVKGRFTISQDNAKNTVYLQMDSVKPEDTAVYYCAADFMIAIQAPGAGCWGQGTQVTVSS
